Common to all, as to assay: potentiometry
What all share (details): 298.2 K; 0.1 M KCl; none (unbuffered, KCl background); metal-free (apo) peptide

One data set concerns the target Asp11 (position 11, …-).
Data set [1] concerns the target Lys14 (position 14, MVDAYKG----).
Data set [2] addresses Tyr13 (position 13, VMVDAYKG---).
The target in the next data set is Asp10 (position 10, …-).
Data set [3] addresses Lys13 (position 13, MVDAYKG----).
Data set [4] addresses Tyr12 (position 12, VMVDAYKG---).

Turning to GWHHAQIVMVDAYKG [Pep2 (bis-histidyl minimal SpyTag peptide with Ala spacer) (synthetic construct (SpyTag-derived))], the pKa is reported as 3.67(5) with Asp11 (position 11, …-); 10.16(5) in data set [1]; 9.7(1) in data set [2].
Consider GWHHQIVMVDAYKG [Pep1 (bis-histidyl minimal SpyTag peptide) (synthetic construct (SpyTag-derived))], for which the pKa was 3.65(4) with Asp10 (position 10, …-); 10.10(9) in data set [3]; 9.51(7) in data set [4].

(Values after paper PMC12541693.)
